Measurements published in the nanobody polyreactivity screen of Harvey et al. (2022).

Test: yeast display, Sf9 membrane polyspecificity reagent, FACS + sequencing; frameworks hold sequencing errors
In short: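 A synthetic nanobody library was expressed on Saccharomyces cerevisiae BJ5465 by galactose induction for 36–48 hours. The library was stained for 1 hour at 4 °C with 10% biotinylated, detergent-solubilized Sf9 membrane reagent and enriched with streptavidin microbeads before FACS. Low and high (top ~1%) gates were set on anti-HA fluorescence for expression and streptavidin fluorescence for reagent binding, and each polyreactivity label reflects the gate of origin.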

| Sequence | polyreactivity (PSR sort gate) |
| --- | --- |
| QVQLVESGGGLVQAGGSLRLSCDASGSIFKYYAMGWYRQAPGKEREWVAAITIGGNTNYADSVKGRFTISRDNAKNTVYLQMNSLKPEDTAVYYCATGGYYSAIVYGGYDYWGQGTQVTVSS | low polyreactivity |
| QVQLVESRGGLVQAGGSLRLTCAAYGRIFLVYDMGWYRHAPGKERELVAAISWSTGSTYYADSVKGRFTISRDNAKNTFYFQINSLITEDTAVYYCAAEPELDDYEHDYWGQGTQLTVSS | low polyreactivity |
| QVQLVESGGGLVQAGGSLRLSCAASGRIFPANAMGWYRQAPGKERELVAAIDYDGGSTYYADSVKGRFTISRDNAKNTVYLQMNSLKPEDTAVYYCAADFYDYEGSYYDYYWGQGTQVTVSS | high polyreactivity |
| QVQLVESGGGLVQAGGSLRLSCAASGSTFYNNAMGWYRQAPGKERESVAAITASGGRTYYADSVKGRFTISRDNAKNTVYLQMNSLKPEDTAVYYCAARGFDRYYWGQGTQVTVSS | high polyreactivity |
| QVQLVESGRGLVQAGGSLRLSCASSGSIKQNAMGWNRQAPGKETELVAAIDWDGSSTYYADSVKGRFTISRDNAKNTVYLQMNSLKPEDTAVYYCAKGWYRIKRNDYWGQGTQVTVSS | low polyreactivity |
| QVQLVESGGGLVQAGGSLRLSCAASGRTFRFNAMGWYRPAPGKERELVAAIRWSGSSTYYADSVKGRFTISRDNAKNTVYLQMNSLKPEDTAVYYSAKRVKTTWFGYWGQGTQVTVSS | high polyreactivity |
| QVQLVESGGCLVQAGGSLRLSCAASGRTFVGYVMGWSRQAPGKERELVAAIRTGGRTHYADSVKGRFTISRDNAKNTVYLQMNSLKPEDTAVYYCNARASYSWHGIRGNYDYWGQGTQVTVSS | high polyreactivity |
| QVQLVESGGGLVQAGGSLRLSCAASGITFIYYMGWYRQAPGKERELVAAITWSGGSTYYADSVKGRFTISRDNAKNTVLLQMNSLKPVDNAVYYCAAVRRAEEYDYWGQGTQVTVSS | low polyreactivity |
| QVPLVESGGGLVQAGGSLRLSCAASGSTLYGYAMGWSSQAPGKERELVAAISYSGGRTFYADSVKGRFTISRDNAKNTVYLQMNSLKPADSAVYYCAAEYTVYVTDWYDYYDWGQGTQVTVAS | low polyreactivity |
| QVQIVESGGGLVQAGGSLRLSCASSGRIFNTNAMGWYRQAPGKERELVAGITDSGDSTYYADSVKGRFTISRDNAKNTVYLQMNSLKPQDSAVYFCATDPASPYIYYYWGQGTQVTVSS | low polyreactivity |
| QVQVVESGGGLVQEGGSLRLSCSASGRIFGVNAMGWYRKAPGKERELFAAISRSGGSTYYADSVKGRFTISRDNEKNTVYLQMNSLNPEDTAVYYCAAGGRRYDDDYWGQGTQVTVSS | high polyreactivity |
| QVQLVESGAGLVQAGGSLRLTCAASGSTFNRYVMGWYRQAPGKERDFVATISQGGGSTYYADSVKGRFTISRDNAKNTVYLHMNSLKPDVTAVYYCAAVSTRQYRYPHEYWGQGTQVTVSS | high polyreactivity |
| QVQLVESGGGLVQAGGSLRLSCAASGIIFYYYGMGWYSQAPGKERELVAAISTGGSTNYADSVKGRFTISRDNAKNTVYLQMNRLKPEDTAVYYCAVTYWWYYGYDYWGQGTQVTVSS | low polyreactivity |
| QVQLVESGGGLVQAGGSLRLSCAASGYIFRLNAMGWYRQAAGKERELLAGISTGGRTNYADSVKGRFTISRDNAKNTVNLQMNSLTPEDTAVYYCAAAWHTASWVGSDSLGGGYWGQGTQVTVSS | low polyreactivity |
| QVQLVESGGGLVQEGGRLRLSCAASGITFRYYAMGWYRQAPGKERELVAAISWGGGSTYYADSVKGRFTISRDNATNTVYLQMNSLKPEDTAVYYCNARGSVRPYGPRATLDYWGQGTQVTVSS | high polyreactivity |
| QVQLEESGGGLVQAGGSLRLSCAASGSIFFWYAMGWSRQAPGKERELVAAISSSGSTNYADSVKGRFTISRDNAKNTVYLQMNSLKPEDTAVYYCATRKYVYYPVQYEFWGQGTQVTVSS | high polyreactivity |

| Sequence | polyreactivity (PSR sort gate) |
| --- | --- |
| QVQLVESGGGLVQAGGSLRLSCAASGFIFSRYTMGWYRQAPGKERELVAAITWSGGSTYYADSVKGRFTISRDNAKNTVYLQMNSLKPVDTAVYYCAAARISVVQGDYWGQGTQVTVSS | high polyreactivity |
| QVQLVESGGGLVQAGGSLRLSCAASGRIFIYNAMGWYTQAPGKERELVAAINRSGVSTHYADSVKGRFTISRDNAKNSVYLQMNSLKPEDTAVYYCARTVYGARSYDYWGQGTQVTVSS | low polyreactivity |
| QVQLVESGGGLVQAGGSLRLSCAASGFIFTFYAMGWYRQAPGKEREFVASIDWGDGSTYYADSVKGRFTISRDNAKNTVYLQMNSLKPEDTAVYYCATDVYFLSSEYWGQGTQVTVSS | low polyreactivity |
| QVQLVESGVGLVQAGGSLRLSCAASGSTFVKYVIGWYRQAPGKERELVAAISRSGGSTYYADSVKGRFTISRDNAKNTDYLQMNSLKPDDTAVYYCAARLFYRLDYRGGYYYWGQGTQVTVSS | high polyreactivity |
| QVQLVESGGGLVQAGGSLRLSCAASGSIFRYYAMGWYRQAPGKESEFVASITYRGGRTYYADSVKGRFTISRDNAKNTVYLQMNSLKPEDTAVYYCAARTRAGAWTSKYHDYWGQGTQVTVSS | high polyreactivity |
| QVQLVESGGGLVQAGGSLRLSCAASGIIFLDYVMGWYRQAPGKERELVAAINSGGSTYYADSVKGRFTISRANAKNNVYLQMNSLKPEDSAVYYCNAVFYDDWQIYDYWGQGTQVTVSS | low polyreactivity |
| QVQLVESGGGLVQAGGSLRLSCASSGRIFRYYDMGWYRQAPGKERELVASITSGGSTNYADSVKGRFTISRDNAKNTVYLQMNSLKPEDTAVYYCAARWGYARANGYDYWGQGTQVTVSS | high polyreactivity |
| QVQLEESGGRLVQAGGSLRLTSAASGGIFSVYAMGWYRQAPGKERQLVASITVSGGSTSYADSVKGRFTISRDNAKNTVYLQMKSLKPEDTAVYYCAVYQYVGYTMDYWGQGTKVTVSS | low polyreactivity |
| QVQLVESGGGLVQAGGSLRLSCAASGFTNAMGWYRQAPGKERELVAAISYSGDSTNYADSVKGRFTISRDNAKNTVYLQMKSLKPEDSAVYYCNASSPYDYDWGQGTQVTVSS | low polyreactivity |
| QVQLVESGGGLVQAGGSLRLSCAASGFTIYRYAMGWYRQAPGKERELVATIRRGGSTKYADSVKGRYTISRDNAKNTVYILMISLKPEDTAVYYCNARYYAAPDKYYYWGQGTQVTVSS | low polyreactivity |
| QVQLVESGGGLVQAGGSLRLSCAASGIIFTYYAMGWYRQAPGKEREIVAAISWSGGNTYYADSVKGRFTISRDHAKNTVYLQMNSLKPEDTAVYYCARVQYWFYKPMYYWGQGTQVTVSS | high polyreactivity |
| QVQLVESGGGLVQAGGSLRLSCAASGFIFQYNTMGWYRQAPGKERELVAVITRTGSTNYADSVKGRFTISRDNGKNTVYLQMNSLQPEDTAVYYCATSVYSRPRKPRYYYWGQGTQVTVSS | high polyreactivity |
| QVQLVESGGGLVQAGGSLRLSCAASGFTFRDYAMGWYRQAPGKERELVAAITRGGSTNYADSVKGRFTISRDNAKNTVYLQMNSLKPEDTAVYYCAATPSWRWHVFAEFNSWGQGTQVTVSS | high polyreactivity |
| QVQLVESGGALVQAGGSLRLSCAASGRIFYKYVMGWYRQAPGKERELVATITSGGSTYYADSVKWRFTISRDNAKNTVYLQMNSLKPEDTAVYYCAARKYYSRAYDYWGQGTQVTVSS | high polyreactivity |
| QVQLVESGGGLVQAGGSLRLSCAASGRTFRFYAMGWSRQAPGKEREMVAAISYSGGSTYYADSVKGRFTISRDNAKNTVYLQMNSLKPEDTAVYYCAAPYYRSTTSYDYWGQGTQVTVSS | high polyreactivity |
| QVQLQESGGGLAQAGGSLRLSCAASGTIFPADSMGWYRQAPGKERELVAGITSGANTYYADSVKGRFTISHDNAKYTVYLQMDSLIPEDIAVYYCAAPGSSTYDLEYWGQGTQVTVSS | high polyreactivity |
